From US20230167169A1 (ATRECA, published 2023)

Target: T1, (NANP)6 (Plasmodium falciparum, biotinylated for the BLI assay (site not stated))
T1 construct: Used in both the BLI and SPR assays
T1 peptide: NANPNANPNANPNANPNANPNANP
Assay: BLI; biotinylated target on streptavidin sensor; antibody at 5 µg/mL

B1: AB-000224 (antibody, V domains shown)
VH: EVQLVESGGGLVQPGRSLRLPCTASGFSFGDHAMSWVRQAPGKGLEWVGFIRKTTYGATTHYAAAVRGRFTISRDDSKSIVYLQMNSLKTEDTAVYFCTRVQLDYGPGYQYYGMDVWGQGTTVTVSS
VL: ESVLTQPPSVSGAPGQRVTISCTGMNSNIGAGYDVYWYQQLPGRAPKLLIYGNSNRPSGVPDRFSGSRSGTSASLAITGLQAEDEADYYCQSYDTSLNGWAFGGGTKLTVLG
  kon: 275000 M⁻¹ s⁻¹
